Drawing on patent publication US20170067091, this text covers Kd for two sequences.

Read-outs that look alike come from different tables or passages of the source.

The subject of series [1] is Immunoglobulin E (human myeloma IgE) (Homo sapiens). The settings on record: fluorescence bead binding assay, 30 min incubation, wash, thermal elution at 95 C; monovalent binding assumed; enriched pool, individual sequences not given.
For series [2] the test system is unchanged. The settings on record: nominal Kd, no asymptote reached; described as negligible binding; fluorescence bead binding assay.

Sequence “GCCTGTTGTGAGCCTCCTGTCGAANNNNNNNNNNNNNNNNNNNNNNNNNNNNNNNNNNNNNNNNNNNNNTTGAGCGTTTATTCTTGTCTCCC [round-4 enriched IgE aptamer pool]” yielded a Kd in series [1] of 12 nM.

“GCCTGTTGTGAGCCTCCTGTCGAANNNNNNNNNNNNNNNNNNNNNNNNNNNNNNNNNNNNNNNNNNNNNTTGAGCGTTTATTCTTGTCTCCC [randomized 45N library]” came in with a Kd in series [2] of 620 nM.
